Experimental data reported in patent US7422862B2, “Methods for identifying modulators of apoptosis” (The Burnham Institute, priority 2001, dated 2008).
Values belong to the substance of their own block, whether it stands above or below them. No end group written: not given here.

What was measured:
CSM14.1 cells = assay: Apoptosis of CSM14.1 cells induced by various stimuli; format: cell-based, rat
Experimental: (A-D) CMS14.1 neuronal cells were transfected with plasmids encoding Flag-HN peptide or Flag-control (27-amino-acid) peptide, together with GFP-encoding plasmid at 4:1 ratio. Cells were either cultured without further treatment (open bars) or subjected to various apoptotic stimuli for various times (dark bars), including (A) STS for 8 h (dark symbols=Flag-control; open symbols=Flag-HN), (B) Serum-deprivation for 72 h, (C) 10 joules/m2 Uvirradiation followed by 24 h culture, and (D) 50 ng/ml TNFa in […] for 24 h. Cells were then fixed and stained with DAPI to determine the percentage of apoptotic cells, evaluating=200 GFP-positive cells per sample (mean±SD; n=3). (inset) Lysates prepared from replicate cultures of transfected cells were normalized for total protein content and analyzed by immunoblotting using anti-Flag (top) and anti-tubulin (bottom) antibodies, confirming production of similar amounts of Flag-control and Flag-HN peptides. (E) SF268 cells were transfected with Humanin siRNA (HN-siRNA) (dark bars) or mutant siRNA containing two mismatches (mut-siRNA) as negative control (open bars). (Upper panel) After 72 hr, cell lysates were prepared and 100 ug was analyzed by immunoblotting using anti-HN and anti-tubulin (as a loading control) antibodies. (Lower panel) At 72 hr after siRNA transfection, SF268 cells were cultured with 0.1 μM STS for 8 hrs, then % apoptosis was determined (mean+std dev; n=3). (F) HN protects against Bax- but not Bak-induced apoptosis. CSM14.1 neuronal cells were co-transfected with pcDNA3-HA-Bax or pcDNA3-HA-Bak together with plasmids encoding with GFP (indicated by “-”), GFP-HN, or GFP-HN(C8P). Apoptosis (%) was measured 48 hrs later among GFP-positive cells. (G) Humanin inhibits STS-induced apoptosis in wild type HCT116 cells, but not HCT116 BAX -/- cells. HCT116 cells heterozygous or homozygous for BAX gene inactivation were transfected with plasmids encoding GFP (open bars) or GFP-HN (dark bars). After 24 h, cells were cultured without (C) or with STS (0.2 μM for wild type and 1.0 μM for Bax - /- cells) for 8 h, then % apoptosis was determined for GFP-positive cells (mean+std dev; n=3). (inset) Lysates from the cells were analyzed by immunoblotting (20 ug) using anti-Bax (top) and anti-Bid (bottom) antibodies. (H) HN prevents Bax-induced cell death in yeast. Cells were co-transformed with YEp51-Bax (encoding Bax under control of a GAL10 promoter) and plasmid control (C) or plasmids encoding Humanin or Humanin(C8P) fusion polypeptides. Cells initially grown in glucose-containing medium were streaked onto either glucose (top) or galactose (bottom) plates to suppress or induce Bax expression, respectively.
For these experiments, Flag-epitope tagged Humanin (Flag-HN) or Flag control polypeptides were expressed in CSM14.1 cells, an immortalized rat hippocampal neuronal cell line that has been used as a model for neuronal apoptosis studies (Kermer et al., Cell Death Differ. 9:405-413 (2002)). Apoptosis of CSM14.1 cells induced by Staurosporine (STS), UV-irradiation, and serum-deprivation was suppressed by Flag-HN (FIG. 6A-C). […] Note that at higher doses of STS (FIG. 6A), Humanin-mediated protection was overcome, indicating Humanin-insensitive mechanisms of apoptosis induction exist, even when using a mitochondria-dependent death stimuli.
Apoptosis assays were performed as follows. […]

Bax [1] = target: T1, Bax (Homo sapiens, UniProt Q07812); assay: Bax-induced apoptosis in transfected neuronal cells (DAPI staining); format: cell-based; parameters: expressed in transfected cells
T1 sequence (Q07812 whole entry, species assumed): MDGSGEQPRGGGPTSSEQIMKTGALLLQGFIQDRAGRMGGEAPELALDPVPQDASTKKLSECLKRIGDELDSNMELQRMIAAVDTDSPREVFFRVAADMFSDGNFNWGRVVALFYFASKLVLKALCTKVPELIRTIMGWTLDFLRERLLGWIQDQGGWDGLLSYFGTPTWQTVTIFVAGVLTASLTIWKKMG
Experimental: (A) HEK293T cells were transfected with pcDNA3-HA-Bax together with plasmids encoding GFP, GFP-HN(N), or GFP-HN(M). Cell lysates were immunoprecipitated with polyclonal anti-GFP antibody. Immunoprecipitates (IP) or cell lysates were analyzed by immunoblotting using anti-HA or anti-GFP antibodies, respectively. (B) CSM14.1 neuronal cells were co-transfected with pcDNA3-HA-Bax together with plasmids encoding GFP, GFP-HN(N), or GFP-HN(M). Percent apoptosis was determined 48 h later by DAPI staining (mean±SD; n=3).
(§1) Rat neuronal cell line CSM14.1 cells were transfected with various plasmids using the Lipofectamine reagent (Invitrogen). For transfection, 10×10^5 cells were plated per well using 6 well plates. Each well received 1 μg DNA plus […] of Lipofectamine. After 24 hours of transfection, the percentage of cell death was determined using 4′-6-diamidino-2-phenylindole (DAPI) staining. […] The data shown were obtained using the cytosolic form of Humanin; however, both cytosolic and mitochondrial forms of Humanin were tested and the results were the same.
(§2) Apoptosis assays were performed as follows. Both floating and adherent cells (after trypsinization) were collected 48 hr after transfection, fixed, and stained using 4′,6-diamidine-2′-phenylindole dihydrochloride (DAPI) for assessing apoptosis based on nuclear fragmentation and chromatin condensation (Fields and Song, supra (1989)).
Since Humanin co-immunoprecipitates with Bax but not Bak, the effects of Humanin over-expression on apoptosis induced by these members of the Bcl-2 family was compared. […] Similar results were obtained regardless of whether Humanin was fused to the N- or C-terminus of GFP, with both of these GFP fusion polypeptides localizing to the cytosol of cells.

[2] = previously reported (Hashimoto et al.); cited from earlier work
Bax [3] = target: T1, Bax; assay: Suppression of apoptosis induced by Bax over-expression (Humanin mutants); format: cell-based; parameters: expressed in transfected cells; host or cells: HEK293T; settings: GFP-fusion polypeptides, 3:1 ratio of HN:Bax plasmid DNA
Experimental: as §2
(§3) In order to explore whether a correlation exists between Humanin binding to Bax and Humanin-mediated suppression of apoptosis, Bax was co-expressed with various GFP-fusion polypeptides encoding wild-type, full-length Humanin or various truncation and site-specific mutants of Humanin (Table 1). Expression of all GFP-fusion polypeptides was confirmed by immunoblotting, and ability to bind Bax was determined by co-immunoprecipitation assay. Each Humanin mutant was scored for ability to suppress apoptosis induced by Bax over-expression by >50% using a 3:1 ratio of HN:Bax plasmid DNA. […] Based on these studies, an active region of the 24 amino-acid Humanin peptide, mapped to residues 7-17.
Cell culture and transfections were performed as follows. CSM14.1, HCT116, Cos-7, and SF268 cells were cultured in DMEM high glucose media (Irvine Scientific, Santa Ana, Calif.) containing 10% fetal bovine serum (FBS). PC-3 cells were cultured with RPMI 1640 media containing 10% FBS. Transfection of cells was performed using SuperFect (Qiagen, Chatsworth, Calif.) or LipofectaminePLUS reagent ([…]).

Bax [4] = target: T1, Bax; assay: Co-immunoprecipitation of GFP-Humanin fusion polypeptides with Bax in transfected cells; format: binding; parameters: expressed in transfected cells; host or cells: HEK293T; key to Bax binding: +: ability to bind Bax was determined by co-immunoprecipitation assay; −: lacked Bax-binding activity; settings: for Bax binding: GFP-fusion polypeptides, co-immunoprecipitation
Text: Humanin (HN) cDNA was sub-cloned into a Green Fluorescence Protein (GFP) expression vector GFP-Cl at the Xhol/Hind III sites, producing a GFP-HN fusion polypeptide. GFP and GFP-HN were transfected into 293T cells with pcDNA3-HA-Bax. Cell lysates from these cells were immunoprecipitated with anti-GFP antibody and subsequently blotted with anti-HA antibody. The lysates were also blotted with ani-GFP antibody to confirm polypeptide expression. […] The data shown were obtained using the cytosolic form of Humanin; however, both cytosolic and mitochondrial forms of Humanin were tested and the results were the same.
Co-immunoprecipitation assays were performed using Humanin polypeptides expressed as fusion polypeptides with the Green Fluorescent Protein (GFP) in human cells. Wild-type Humanin fused to GFP is referred to as GFP-HN and a mutant form of Humanin, where the cysteine at position 8 is replaced with proline, fused to GFP is referred to as GFP-C8P. […] Immunoblot analysis of lysates of the transfected cells confirmed production of all proteins. In addition, GFP-HN also coimmunoprecipitated endogenous Bax from cell lines, which contain relatively high levels of the Bax protein.
Immunoblotting and immunoprecipitations were performed as follows. Immunoblotting was performed as described previously (Fields and Song, Nature 340:245-246 (1989)). For co-immunoprecipitations, cells were cultured in 50 uM […] Valine Alanine Asparate fluoromethyl-ketone (zVAD-fmk) to prevent apoptosis. Cells were suspended in lysis buffer (50 mM Tris-HCl, pH7.4; 150 mM NaCl; 20 mM EDTA; 50 mM NaF; 0.5% NP-40; 0.1 mM Na3VO4; 20 ug/ml Leupeptin; 20 ug/ml Aprotinin; 1 mM DTT; and 1 mM PMSF). Lysates (200 ul diluted in 1 ml final volume of lysis buffer) were cleared by incubation with 15 ul of protein G-Sepharose 4B (Zymed) and then incubated with 15 ul of polyclonal antibody and 15 ul of protein G at 4° C. overnight. Beads were then washed 4 times with 1.5 mls lysis buffer before boiling in Laemmli sample buffer and performing SDS-PAGE/immunoblotting.
as §3

t-Bid = target: T2, t-Bid (Homo sapiens, UniProt P55957); assay: Bid-induced apoptosis in CSM14.1 cells (DAPI staining); format: cell-based; parameters: expressed in transfected cells; host or cells: CSM14.1 rat hippocampal neuronal cells; settings: 24 hours after transfection
T2 sequence (P55957 61-195 limits assumed): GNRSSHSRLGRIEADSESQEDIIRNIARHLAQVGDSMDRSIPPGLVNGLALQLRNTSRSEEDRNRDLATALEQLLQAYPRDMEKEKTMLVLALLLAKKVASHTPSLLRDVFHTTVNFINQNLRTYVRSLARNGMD
Experimental: Apoptosis was examined by DAPI staining. The data shown were obtained using the cytosolic form of Humanin; however, both cytosolic and mitochondrial forms of Humanin were tested and the results were the same.
as §1

Substance: Flag-HN: Flag-epitope tagged Humanin expressed in cells (MAPRGFSCLLLLTSEIDLPVKRRA; also: Flag epitope tag; UniProt Q8IVG9 1-24, looked up)
apoptosis induced by UV-irradiation (CSM14.1 cells): suppressed
apoptosis induced by serum-deprivation (CSM14.1 cells): suppressed
apoptosis induced by TNF (CSM14.1 cells; Bax-independent death stimulus): not suppressed
apoptosis induced by Staurosporine (STS) (CSM14.1 cells; STS 8 h): suppressed
protection at higher doses of STS (CSM14.1 cells; higher doses of STS): overcome

suppression of apoptosis induced by Bax (Bax [1]; CSM14.1 or PC-3 cells, transient co-transfection): did not suppress
co-immunoprecipitation with tagged Bax (Bax [4]; 293T/HEK293T cells, anti-GFP immunoprecipitation): did not
Bax binding (Bax [4]): −
Substance: GFP-HN(C8P): mutant Humanin, cysteine at position 8 replaced with proline, fused to GFP (MAPRGFSPLLLLTSEIDLPVKRRA; also: fused to GFP; UniProt Q8IVG9 1-24, looked up, variant C8P)
anti-apoptotic activity when expressed in cells [2]: lack anti-apoptotic activity
Bax suppression (Bax [3]): − (failed to protect against Bax-induced apoptosis)

Bax-induced apoptosis (Bax [1]; CSM14.1 cells, 24 hours after transfection, DAPI): not able to decrease
Bid-induced apoptosis (t-Bid): not able to decrease
Substance: Humanin (C8A): mutant form of Humanin where the cysteine at position 8 was mutated to an alanine (MAPRGFSALLLLTSEIDLPVKRRA; also: fused to GFP; UniProt Q8IVG9 1-24, looked up, variant C8A)

Bax binding (Bax [4]): −
Substance: L9R: GFP-fusion of Humanin site-specific mutant L9R (MAPRGFSCRLLLTSEIDLPVKRRA; also: fused to GFP; UniProt Q8IVG9 1-24, looked up, variant L9R)
anti-apoptotic activity when expressed in cells [2]: lack anti-apoptotic activity
Bax suppression (Bax [3]): − (failed to protect against Bax-induced apoptosis)
